Results from patent publication US20200140851A1 (Scripps Research, published 2020).

Target: T1, mouse vimentin (VIM from wild-type C57BL/6J mouse bone marrow lysates) (mouse, UniProt P20152 2-466)
T1 construct: Endogenous protein in bone marrow lysate, denatured for SDS/PAGE and Western blot
Experiment: Western blot of bone marrow lysate
Procedure: To identify the protein recognized by the B1 antibody, antibodies were produced recombinantly in Expi293F cells. Purified B1 antibody (at a concentration of about 5-10 μg/ml) was incubated with human CD34⁺ cells, and immune complexes from cellular lysates were captured on a protein A/G column. Proteins that reacted with the antibody were identified by silver staining of SDS gels and their identity determined by mass spectrometry (MS). Three candidate proteins were identified above the background threshold (FIG. 5A). Vimentin (VIM) was one of the top hits and was confirmed to be B1 target antigen of B1 Ab by Western blotting. […] Also, VIM expression was found in human CD34⁺ cells by immunofluorescence cytochemistry using B1 or commercial VIM antibodies (FIG. 5C). The amino acid sequence identity between mouse and human VIM is greater than 97%.
Western blot: Cells were washed with PBS and then lysed in lysis buffer (50 mM Hlepes, pH 7.2, 150 mM NaCl, 50 mM NaF, 1 mM Na3VO₄, 10% glycerol, 1% Triton X-100). The lysates were then centrifuged at 12,000×g for 15 min at 4° C. The proteins were denatured in Laemmli sample buffer (5 min at 95° C.), separated by SDS/PAGE, and transferred to nitrocellulose membranes using the iBlot blotting system (Invitrogen). […]

T1 sequence (P20152 2-466 limits assumed): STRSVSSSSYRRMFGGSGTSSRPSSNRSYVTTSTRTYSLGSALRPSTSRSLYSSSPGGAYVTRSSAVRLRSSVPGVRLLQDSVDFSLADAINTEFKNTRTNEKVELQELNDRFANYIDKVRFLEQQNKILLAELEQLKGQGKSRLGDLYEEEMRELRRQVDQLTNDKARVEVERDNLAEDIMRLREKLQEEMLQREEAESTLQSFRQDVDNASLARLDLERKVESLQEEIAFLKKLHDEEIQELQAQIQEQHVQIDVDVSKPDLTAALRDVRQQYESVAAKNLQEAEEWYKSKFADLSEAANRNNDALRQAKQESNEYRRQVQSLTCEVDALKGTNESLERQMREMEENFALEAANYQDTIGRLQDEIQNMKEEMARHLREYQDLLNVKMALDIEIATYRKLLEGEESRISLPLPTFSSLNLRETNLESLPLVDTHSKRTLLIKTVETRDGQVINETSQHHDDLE

B1: B1 antibody (Fc fusion)
scFv: MAQVQLLESGGGLVQPGGSLTLACAASGFNFNNYNMNWVRQAPGRGLEWVAFISSAADTVHYADSVEGRFTISRDNAKNSLYLHMNSLRDEDTAVYYCARQLLYWGQGTLVTVSSGGGGGSQAVLTQPSSLSASPGASVSLTCTLRSGINVGAYRIYWYQQKPGSPPQFLLRYKSDSDKQQGSGVPSRFSGSRDASANAGILLISWLRSEDEADYYCAIWHSSAWVFGGGTQLTVLG
notes: also called B1 Ab; B1Ab; not shown: Fc tag of the purified ScFv-Fc fusion protein
  binding result: binds
